Patent US7572574B2, “Method of measuring neprilysin activity” (Riken, priority 2002, dated 2009)

Target: T1, neprilysin (Mus musculus, UniProt Q61391)
T1 construct: endogenous in cells; host or cells: mouse fetal cerebral cortex and hippocampus primary cultured nerve cells, paraformaldehyde-fixed
T1 sequence (Q61391 1-750): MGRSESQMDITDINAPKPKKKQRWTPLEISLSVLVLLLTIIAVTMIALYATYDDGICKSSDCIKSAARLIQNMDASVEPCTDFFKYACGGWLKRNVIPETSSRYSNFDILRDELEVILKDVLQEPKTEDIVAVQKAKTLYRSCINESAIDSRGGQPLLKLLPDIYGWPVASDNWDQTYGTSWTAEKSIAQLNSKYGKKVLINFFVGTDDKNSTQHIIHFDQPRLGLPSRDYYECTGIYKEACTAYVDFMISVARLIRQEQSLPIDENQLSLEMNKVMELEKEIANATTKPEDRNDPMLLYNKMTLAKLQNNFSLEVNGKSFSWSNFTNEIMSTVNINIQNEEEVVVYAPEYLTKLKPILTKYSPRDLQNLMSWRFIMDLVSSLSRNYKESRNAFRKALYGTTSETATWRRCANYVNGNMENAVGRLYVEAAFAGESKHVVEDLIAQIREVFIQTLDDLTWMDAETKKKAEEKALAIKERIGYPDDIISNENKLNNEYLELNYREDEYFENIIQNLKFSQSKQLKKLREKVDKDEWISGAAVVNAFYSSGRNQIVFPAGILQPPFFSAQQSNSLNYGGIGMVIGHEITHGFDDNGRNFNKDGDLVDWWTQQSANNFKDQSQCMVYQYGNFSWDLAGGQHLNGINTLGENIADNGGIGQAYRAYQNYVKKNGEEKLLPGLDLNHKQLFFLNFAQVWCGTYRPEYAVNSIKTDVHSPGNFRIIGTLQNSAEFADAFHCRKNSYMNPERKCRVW
Assay: Neprilysin activity staining in mouse primary cultured nerve cells (fluorescent substrate, confocal microscopy)
Format: cell-based
Conditions: for action against the neprilysin activity or its gene expression: general statement in the description
Procedure: Nerve cells were prepared from the mouse fetal cerebral cortex and hippocampus and seeded on a poly-L-coated chamber slide (8 chambers, IWAKI 4730-040) at a density of 1×10^5 cells/chamber, followed by incubation for 7 days. After completion of the incubation, the cells were washed with TBS (pH 7.4) and fixed for 12.5 minutes at 20° C. with a paraformaldehyde solution (1.5% paraformaldehyde/50 mM phosphate buffer, pH 6.8). After the cells were washed twice with TBS, 0.2 ml of substrate solution (glutaryl-alanyl-alanyl-phenylalanyl-4-methoxy-2-naphthylamide, Sigma G3769, fmal concentration: 0.5 mM; 0.05 M Tris-HCI buffer, pH 7.4 (pH was adjusted to 7.4 at 4° C.)) was added to the cells, followed by reacting at 4° C. for 48 hours. After completion of the reaction, 25 μl of the solution mixture of aminopeptidase (Sigma L-5006, final concentration: 20.4 μg/ml) and phosphoramidone (Peptide Inst. 4082, final concentration: 10 μM) and 25 μl of nitrosalicylaldehyde solution (6 mM) were further added thereto sequentially. The mixture was reacted at 37° C. for 30 minutes. The reaction was completed by washing the cells twice with TBS. Using argon laser and a filter for rhodamine, positive stained images were observed under a confocal laser scanning microscope (FIG. 1). When the substrate is degraded by neprilysin, an insoluble fluorescent reaction product is formed so that the sites where neprilysin is present are visualized in yellow.
Nerve cells were prepared from the mouse fetal cerebral cortex and hippocampus, followed by incubation as in EXAMPLE 1. On day 7 of the incubation, somatostatin (somatostatin 14 and 28, final concentration: 1 μM) was added to the cells, followed by incubation for further 24 hours. […] To investigate in further detail, these stained images were quantified by image analysis software (Nippon Roper Co., Ltd., MetaVue) and examined.

Substance | action against the neprilysin activity or its gene expression | neprilysin activity in the nerve cells compared to control added with no peptide (mouse fetal cerebral cortex and hippocampus primary nerve cells, peptide final concentration 1 μM, 24 hours, stained images observed)
VIP: vasoactive intestinal peptide, publicly known neuropeptide | inhibitorily acts | 
PACAP: pituitary adenylate cyclase-activating polypeptide, publicly known neuropeptide | inhibitorily acts | markedly decreased
